As a reminder, the EC50 is the concentration at which the effect is half-maximal.

The results in this text go back to US20250000946A1 (WUXI BIOLOGICS IRELAND, published 2025).

For assay [1], the target named is T1, Human IL-2Rβ/γ (intermediate affinity IL-2 receptor) (human, UniProt P14784 27-551; P31785 23-369).
T1 construct: whole, on cells; also called IL-2Rβ/γc; IL-2Rβ (CD122) and γ (CD132)
T1 sequence (looked up) 1: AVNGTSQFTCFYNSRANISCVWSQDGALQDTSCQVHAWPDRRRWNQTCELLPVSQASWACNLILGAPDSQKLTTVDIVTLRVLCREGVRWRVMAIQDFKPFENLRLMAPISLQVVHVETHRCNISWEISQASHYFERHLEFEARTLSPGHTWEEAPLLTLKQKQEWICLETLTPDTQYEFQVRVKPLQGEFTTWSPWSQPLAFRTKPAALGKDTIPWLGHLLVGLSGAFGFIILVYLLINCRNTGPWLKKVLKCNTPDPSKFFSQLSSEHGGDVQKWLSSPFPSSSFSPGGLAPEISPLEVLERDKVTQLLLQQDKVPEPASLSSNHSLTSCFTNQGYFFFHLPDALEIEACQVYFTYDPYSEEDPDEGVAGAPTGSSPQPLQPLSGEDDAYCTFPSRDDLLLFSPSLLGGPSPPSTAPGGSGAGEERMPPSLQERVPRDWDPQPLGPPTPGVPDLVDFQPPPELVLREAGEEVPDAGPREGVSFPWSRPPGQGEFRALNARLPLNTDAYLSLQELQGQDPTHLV
T1 sequence (looked up) 2: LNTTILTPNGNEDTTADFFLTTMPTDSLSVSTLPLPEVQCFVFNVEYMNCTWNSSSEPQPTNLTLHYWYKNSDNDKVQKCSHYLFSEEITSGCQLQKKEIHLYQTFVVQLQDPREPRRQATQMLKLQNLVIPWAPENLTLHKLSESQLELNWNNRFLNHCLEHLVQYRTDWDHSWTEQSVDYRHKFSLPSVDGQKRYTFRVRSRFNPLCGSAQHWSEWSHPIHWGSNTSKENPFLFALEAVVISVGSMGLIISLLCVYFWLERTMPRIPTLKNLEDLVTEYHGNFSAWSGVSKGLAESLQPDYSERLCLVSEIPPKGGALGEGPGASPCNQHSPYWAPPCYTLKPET
Briefly: FACS, HH cells; EC50 fold vs T2U0.E44-1. The protocol: (§1) Human cutaneous T cell lymphoma HH cells, malignant non-Hodgkin's lymphoma NK92 cells and cutaneous T cell lymphoma MJ20 cells were used for binding assay. They both constitutively express IL-2Rβ (CD122) and […] (CD132), and NK92 and MJ20 also expresses IL-2Rα (CD25). HH, NK92 and MJ20 cells were cultured following ATCC guidance, then transferred to a 96-plate for binding analysis. Cells were incubated with IL-2/Fc fusion proteins at the indicated concentrations for 30 min at 4° C. to avoid internalization. Binding was detected by 2nd antibody of PE-anti-human Fc at 4° C. for another 30 min. The median fluorescence intensity (MFI) on HH and NK92 cells was measured using FACS.
Background: A flow cytometer gives signals particle by particle.

The target of assay [2] is T1, Human IL-2Rβ/γ (intermediate affinity …). Briefly: FACS, HH cells. Here is the method: as §1
Assay [3] shares this target. The experiment in a line: cell-based or functional assay.
In assay [4] the target is T2, Human IL-2Rα/β/γ complex (high affinity IL-2 receptor) (human, UniProt P01589 22-272; P14784 27-551; P31785 23-369).
T2 sequence (looked up) 1: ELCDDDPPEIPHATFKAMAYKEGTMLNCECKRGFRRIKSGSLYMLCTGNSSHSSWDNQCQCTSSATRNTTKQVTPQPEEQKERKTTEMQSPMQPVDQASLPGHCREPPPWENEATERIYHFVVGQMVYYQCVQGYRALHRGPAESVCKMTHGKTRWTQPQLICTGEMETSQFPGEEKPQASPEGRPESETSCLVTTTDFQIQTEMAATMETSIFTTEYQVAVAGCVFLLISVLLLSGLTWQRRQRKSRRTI
T2 sequence (looked up) 2: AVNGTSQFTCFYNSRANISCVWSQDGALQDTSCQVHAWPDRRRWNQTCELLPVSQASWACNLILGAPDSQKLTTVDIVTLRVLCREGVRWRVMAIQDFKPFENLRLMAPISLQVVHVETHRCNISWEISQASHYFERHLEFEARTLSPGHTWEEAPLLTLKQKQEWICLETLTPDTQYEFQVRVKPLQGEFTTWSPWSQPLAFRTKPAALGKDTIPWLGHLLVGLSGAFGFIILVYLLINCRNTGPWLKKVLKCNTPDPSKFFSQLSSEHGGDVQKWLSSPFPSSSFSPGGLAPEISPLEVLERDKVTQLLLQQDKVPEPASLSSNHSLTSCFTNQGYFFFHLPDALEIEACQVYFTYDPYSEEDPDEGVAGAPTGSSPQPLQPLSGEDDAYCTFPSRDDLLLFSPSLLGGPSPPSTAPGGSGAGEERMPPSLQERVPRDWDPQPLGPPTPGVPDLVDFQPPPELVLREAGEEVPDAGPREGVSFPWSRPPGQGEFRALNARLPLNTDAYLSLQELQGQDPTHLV
T2 sequence (looked up) 3: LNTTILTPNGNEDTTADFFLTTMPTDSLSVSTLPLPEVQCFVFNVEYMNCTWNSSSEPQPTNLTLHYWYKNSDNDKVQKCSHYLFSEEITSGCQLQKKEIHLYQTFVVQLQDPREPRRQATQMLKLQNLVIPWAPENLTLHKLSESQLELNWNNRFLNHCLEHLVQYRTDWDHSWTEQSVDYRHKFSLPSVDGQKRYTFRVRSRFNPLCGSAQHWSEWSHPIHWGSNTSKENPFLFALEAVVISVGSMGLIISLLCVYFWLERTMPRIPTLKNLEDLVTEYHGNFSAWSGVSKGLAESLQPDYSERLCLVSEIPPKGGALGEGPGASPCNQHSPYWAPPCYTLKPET
Briefly: cell-based or functional assay.

Assay [5] has as its target T1, Human IL-2Rβ/γ (intermediate affinity …). Briefly: cell-based or functional assay. This is another data set of the same source.
Assay [6] addresses T2, Human IL-2Rα/β/γ complex (high affinity …). The experiment in a line: FACS, NK92 cells; EC50 fold vs T2U0.E44-1. Here is the method: as §1
Assay [7] has the same target. The experiment in a line: FACS, NK92 cells. The protocol:
as §1

B1: W3XX115-T2U0.E44-31.uIgG4V322 (Fc fusion)
chain: APTSSSTKKTQLQLEHLLLDLQMILNGINNYKNPKLTRMLTVKFYMPKKATELKHLQCLEEELKPLEEVLNLAQSKNFHLRPRDLISNINVIVLELKGSETTFMCEYADETATIVEFLNRWITFCQSILESKYGPPCPPCPAPEAAGGPSVFLFPPKPKDTLMISRTPEVTCVVVDVSQEDPEVQFNWYVDGVEVHNAKTKPREEQFNSTYRVVSVLTVLHQDWLNGKEYKCKVSNKGLPSSIEKTISKAKGQPREPQVYTLPPCQEEMTKNQVSLWCLVKGFYPSDIAVEWESNGQPENNYKTTPPVLDSDGSFFLYSRLTVDKSRWQEGNVFSCSVMHEALHNHYTQKSLSLSLG
heavy: EIQLQQSGPELVKPGASVKVSCKASGYSFTDYNMYWVKQSHGESLEWIGYIDPYNGGTRYNQKFKGKATLTVDKSSSTAFMHLNSLTSEDSAVYYCARNGHWDGAWFAYWGQGTLVTVSAASTKGPSVFPLAPCSRSTSESTAALGCLVKDYFPEPVTVSWNSGALTSGVHTFPAVLQSSGLYSLSSVVTVPSSSLGTKTYTCNVDHKPSNTKVDKRVESKYGPPCPPCPAPEAAGGPSVFLFPPKPKDTLMISRTPEVTCVVVDVSQEDPEVQFNWYVDGVEVHNAKTKPREEQFNSTYRVVSVLTVLHQDWLNGKEYKCKVSNKGLPSSIEKTISKAKGQPREPQVCTLPPSQEEMTKNQVSLSCAVKGFYPSDIAVEWESNGQPENNYKTTPPVLDSDGSFFLVSRLTVDKSRWQEGNVFSCSVMHEALHNHYTQKSLSLSLG
light: DIQMNQSPSSLSASLGDTITITCHASQNINVWLSWYQQKPGNIPKLLIYKASNLHTGVPSRFSGSRSGTGFTLTISSLQPEDIATYYCHQGQSYPFTFGSGTKLEIKRTVAAPSVFIFPPSDEQLKSGTASVVCLLNNFYPREAKVQWKVDNALQSGNSQESVTEQDSKDSTYSLSSTLTLSKADYEKHKVYACEVTHQGLSSPVTKSFNRGEC
On to B1, for which the Affinity reduction in assay [1] came to 15.8 fold. For the same molecule, the response in assay [2] was half-maximal at 800 nM (EC50). In assay [3], the “Human CD8+ T Potency EC50 (STAT5 phosphorylation)” value was found to be 365 nM and the “Human CD8+ T Potency reduction” value came to 100 fold.

B2: W3XX115-T2U0.E44-7.uIgG4V1 (Fc fusion)
chain: APTSSSTKKTQLQLEHLLLDLQMILNGINNYKNPKLTRMLTFKFYMPKKATELKHLQCLEEELKPLEEVLNLAQSKNFHLRPRDLISNINVIVLELKGSETTFMCEYADETATIVEFLNRWITFCQSIESKYGPPCPPCPAPEFLGGPSVFLFPPKPKDTLMISRTPEVTCVVVDVSQEDPEVQFNWYVDGVEVHNAKTKPREEQFNSTYRVVSVLTVLHQDWLNGKEYKCKVSNKGLPSSIEKTISKAKGQPREPQVYTLPPCQEEMTKNQVSLWCLVKGFYPSDIAVEWESNGQPENNYKTTPPVLDSDGSFFLYSRLTVDKSRWQEGNVFSCSVMHEALHNHYTQKSLSLSLG
heavy: EIQLQQSGPELVKPGASVKVSCKASGYSFTDYNMYWVKQSHGESLEWIGYIDPYNGGTRYNQKFKGKATLTVDKSSSTAFMHLNSLTSEDSAVYYCARNGHWDGAWFAYWGQGTLVTVSAASTKGPSVFPLAPCSRSTSESTAALGCLVKDYFPEPVTVSWNSGALTSGVHTFPAVLQSSGLYSLSSVVTVPSSSLGTKTYTCNVDHKPSNTKVDKRVESKYGPPCPPCPAPEFLGGPSVFLFPPKPKDTLMISRTPEVTCVVVDVSQEDPEVQFNWYVDGVEVHNAKTKPREEQFNSTYRVVSVLTVLHQDWLNGKEYKCKVSNKGLPSSIEKTISKAKGQPREPQVCTLPPSQEEMTKNQVSLSCAVKGFYPSDIAVEWESNGQPENNYKTTPPVLDSDGSFFLVSRLTVDKSRWQEGNVFSCSVMHEALHNHYTQKSLSLSLG
light: DIQMNQSPSSLSASLGDTITITCHASQNINVWLSWYQQKPGNIPKLLIYKASNLHTGVPSRFSGSRSGTGFTLTISSLQPEDIATYYCHQGQSYPFTFGSGTKLEIKRTVAAPSVFIFPPSDEQLKSGTASVVCLLNNFYPREAKVQWKVDNALQSGNSQESVTEQDSKDSTYSLSSTLTLSKADYEKHKVYACEVTHQGLSSPVTKSFNRGEC
notes: IL-2 with C-terminal 5 aa (ISTLT) deleted; E44 format, IgG4
Take B2: in assay [4], the “Potency in human Treg EC50” value came out at 36.4 nM and the “Potency reduction (Treg)” value came to 1400 fold. In assay [5], the “Potency in human CD8+ T EC50” value stood at 5110 nM and the “Potency reduction (CD8+ T)” value amounted to 535 fold. Further, in assay [6], the Affinity reduction amounted to 94 fold. In assay [7], this molecule returned an EC50 of roughly 515 nM.

B3: W3XX115-T2U0.E44-32.uIgG4V322 (Fc fusion)
chain: APTSSSTKKTQLQLEHLLLDLQMILNGINNYKNPKLTRMLTIKFYMPKKATELKHLQCLEEELKPLEEVLNLAQSKNFHLRPRDLISNINVIVLELKGSETTFMCEYADETATIVEFLNRWITFCQSILESKYGPPCPPCPAPEAAGGPSVFLFPPKPKDTLMISRTPEVTCVVVDVSQEDPEVQFNWYVDGVEVHNAKTKPREEQFNSTYRVVSVLTVLHQDWLNGKEYKCKVSNKGLPSSIEKTISKAKGQPREPQVYTLPPCQEEMTKNQVSLWCLVKGFYPSDIAVEWESNGQPENNYKTTPPVLDSDGSFFLYSRLTVDKSRWQEGNVFSCSVMHEALHNHYTQKSLSLSLG
heavy: EIQLQQSGPELVKPGASVKVSCKASGYSFTDYNMYWVKQSHGESLEWIGYIDPYNGGTRYNQKFKGKATLTVDKSSSTAFMHLNSLTSEDSAVYYCARNGHWDGAWFAYWGQGTLVTVSAASTKGPSVFPLAPCSRSTSESTAALGCLVKDYFPEPVTVSWNSGALTSGVHTFPAVLQSSGLYSLSSVVTVPSSSLGTKTYTCNVDHKPSNTKVDKRVESKYGPPCPPCPAPEAAGGPSVFLFPPKPKDTLMISRTPEVTCVVVDVSQEDPEVQFNWYVDGVEVHNAKTKPREEQFNSTYRVVSVLTVLHQDWLNGKEYKCKVSNKGLPSSIEKTISKAKGQPREPQVCTLPPSQEEMTKNQVSLSCAVKGFYPSDIAVEWESNGQPENNYKTTPPVLDSDGSFFLVSRLTVDKSRWQEGNVFSCSVMHEALHNHYTQKSLSLSLG
light: DIQMNQSPSSLSASLGDTITITCHASQNINVWLSWYQQKPGNIPKLLIYKASNLHTGVPSRFSGSRSGTGFTLTISSLQPEDIATYYCHQGQSYPFTFGSGTKLEIKRTVAAPSVFIFPPSDEQLKSGTASVVCLLNNFYPREAKVQWKVDNALQSGNSQESVTEQDSKDSTYSLSSTLTLSKADYEKHKVYACEVTHQGLSSPVTKSFNRGEC
Consider B3, for which the Affinity reduction in assay [1] is 17.9 fold. The EC50 in assay [2] was 904 nM. In assay [3], the “Human CD8+ T Potency EC50 (STAT5 phosphorylation)” value was 379 nM and the “Human CD8+ T Potency reduction” value worked out at 104 fold.
